Our source for the half-maximal inhibition of Ca2+-triggered [3H]-NE release from cracked PC12 cells (dose response of GST-Kv2.1-C1); pair blocked: endogenous Kv2.1 with syntaxin, inhibition of Ca2+-triggered [3H]-NE release from cracked PC12 cells and inhibition of Ca2+-triggered [3H]-NE release from cracked PC12 cells by 10–20 µM GST-fusion peptide present during priming and triggering; pair blocked: endogenous Kv2.1 with syntaxin values is PMC2148073.

The target of test [1] is native syntaxin 1A from PC12 cells (rat (endogenous in PC12)) (UniProt P32851).
Test [2] shares this target. This is another data set of the same source.

Sequence of UniProt P32851 (P32851 whole entry): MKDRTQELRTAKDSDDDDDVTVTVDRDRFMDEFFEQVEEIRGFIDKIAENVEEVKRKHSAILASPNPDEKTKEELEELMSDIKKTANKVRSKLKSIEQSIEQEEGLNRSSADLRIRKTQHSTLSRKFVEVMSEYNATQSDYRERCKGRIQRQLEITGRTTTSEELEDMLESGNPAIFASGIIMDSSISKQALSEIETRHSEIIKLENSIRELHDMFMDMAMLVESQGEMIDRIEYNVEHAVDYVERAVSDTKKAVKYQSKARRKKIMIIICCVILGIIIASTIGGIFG

As to “GST-fused Kv2.1-C1 protein (domain or fragment)”, in test [1], the half-maximal inhibition of Ca2+-triggered [3H]-NE release from cracked PC12 cells (dose response of GST-Kv2.1-C1); pair blocked: endogenous Kv2.1 with syntaxin was 2 µM and the inhibition of Ca2+-triggered [3H]-NE release from cracked PC12 cells at increasing concentrations of GST-Kv2.1-C1 (from 10 nM; saturation at 5 µM); pair blocked: endogenous Kv2.1 with syntaxin stood at 57%. This substance yielded an inhibition of Ca2+-triggered [3H]-NE release from cracked PC12 cells by 10–20 µM GST-fusion peptide present during priming and triggering; pair blocked: endogenous Kv2.1 with syntaxin in test [2] of 60%.
